{"source": "patent US20060240053A1", "about": "(L OREAL, published 2006)", "target": "the molecule itself", "assay": "BS3 chemical crosslinking, then gel filtration and SDS-PAGE (self-association)", "experimental": "A study of the crosslinking using BS3 (Pierce) is carried out on activated SASPase (SEQ ID NO: 6), obtained by acidification and purification by exclusion chromatography (gel filtration) of the recombinant fusion protein GST-SASPase Δ1-84.\n1 μg of BS3 in 60 μl of 50 mM phosphate buffer, pH 7, containing 150 mM NaCl, 0.1% TX100 and 5 mM EDTA is added to the activated SASPase (SEQ ID NO: 6) obtained in example III, placed in ice. A control sample free of BS3 is also prepared. After 90 min, 2 μl of 1 M Tris-HCl, pH 8, are introduced into the reaction media in order to stop the reaction. The products obtained are then analyzed by gel filtration and by SDS-PAGE electrophoresis.", "data": [{"protein": "activated SASPase (SEQ ID NO: 6) (enzyme, also called 12 kD SASPase) ANSMGKGYYLKGKIGKVPVRFLVDSGAQVSVVHPNLWEEVTDGDLDTLQPFENVVKVANGAEMKILGVWDTAVSLGKLKLKAQFLVANASAEEAIIGTDVLQDHNAILDFEHRTCTLKGKKFRLLPVGGSLEDEFDLE", "values": [{"measurement": "binding result", "result": "binds"}]}]}
